# Assay results published in patent US20240116985A1, “STAPLED PEPTIDES AND METHODS THEREOF” (priority 2020, published 2024).
# Starred links: 1 amine or outer side, 2 acyl side, 3 side chain; linkers in the order of their positions; H or OH if unused. Positions of bridges follow the written chain, without caps; N, C: chain ends. Non-standard residues stand in square brackets, D forms with d. Primed or numbered codes have the meaning given here. *: point of attachment. PyrS2″ = (S)-3-amino-1-((pent-4-en-1-yloxy)carbonyl)pyrrolidine-3-carboxylic acid (stapling residue), C=CCCCOC(=O)N1CC[C@@](N[*:1])(C(=O)[*:2])C1; B5(4) = 2,2-bis(4-pentenyl)glycine = 2-amino-2-(pent-4-en-1-yl)hept-6-enoic acid (stitching residue), C=CCCCC(CCCC=C)(N[*:1])C(=O)[*:2]; B5(8) = 2,2-bis(4-pentenyl)glycine (2-amino-2-(pent-4-en-1-yl)hept-6-enoic acid, stitching residue), C=CCCCC(CCCC=C)(N[*:1])C(=O)[*:2]; TfeGA = (S)-2-amino-3-((carboxymethyl)(2,2,2-trifluoroethyl)amino)propanoic acid, O=C([C@H](CN(CC(=O)[*:3])CC(F)(F)F)N[*:1])[*:2]; PyrS2 = (S)-3-amino-1-((pent-4-en-1-yloxy)carbonyl)pyrrolidine-3-carboxylic acid, C=CCCCOC(=O)N1CC[C@@](N[*:1])(C(=O)[*:2])C1; B5(13) = 2-amino-2-(pent-4-en-1-yl)hept-6-enoic acid (two alkene chains), C=CCCCC(CCCC=C)(N[*:1])C(=O)[*:2]; B5(3) = 2,2-bis(4-pentenyl)glycine (stitching residue), C=CCCCC(CCCC=C)(N[*:1])C(=O)[*:2]; B5 = 2-amino-2-(pent-4-en-1-yl)hept-6-enoic acid, C=CCCCC(CCCC=C)(N[*:1])C(=O)[*:2]; 4pentenyl = N-terminal pent-4-enoic acid (acyl cap), C=CCCC(=O)*; Phe(4-COOH) = N[C@@H](Cc1ccc(C(=O)O)cc1)C(=O)O; Bta = N[C@@H](Cc1csc2ccccc12)C(=O)O; αAllylPro = C=CC[C@@]1(C(=O)O)CCCN1; tBuAla = CC(C)(C)C[C@H](N)C(=O)O; 3Thi = N[C@@H](Cc1ccsc1)C(=O)O; S8 = C=CCCCCCC[C@](C)(N)C(=O)O; hSer = N[C@@H](CCO)C(=O)O
# B1: I-2599 (peptide)
# peptide: 4pentenyl-XD[B5(3)]ADDAAF[PyrS2]L[3Thi][Bta]Q-NH2
# modifications: staple 3-10; staple (positions not given here); not fully specified (residue 1, bridges); printed as 4pentenyl-MePro-Asp-B5-Ala-Asp-Asp-Ala-Ala-Phe-PyrS2-Leu-3Thi-BztA-Gln-NH2
# Columns and labels:
# [1] = target: full-length beta-Catenin (Uniprot ID P35222) (Homo sapiens (Human)) (UniProt P35222); experiment: fluorescence polarization competition; full-length beta-catenin + 5FAM-TCF4 10-53 probe, peptide titrated
# Target sequence in this assay (P35222 2-781 limits assumed): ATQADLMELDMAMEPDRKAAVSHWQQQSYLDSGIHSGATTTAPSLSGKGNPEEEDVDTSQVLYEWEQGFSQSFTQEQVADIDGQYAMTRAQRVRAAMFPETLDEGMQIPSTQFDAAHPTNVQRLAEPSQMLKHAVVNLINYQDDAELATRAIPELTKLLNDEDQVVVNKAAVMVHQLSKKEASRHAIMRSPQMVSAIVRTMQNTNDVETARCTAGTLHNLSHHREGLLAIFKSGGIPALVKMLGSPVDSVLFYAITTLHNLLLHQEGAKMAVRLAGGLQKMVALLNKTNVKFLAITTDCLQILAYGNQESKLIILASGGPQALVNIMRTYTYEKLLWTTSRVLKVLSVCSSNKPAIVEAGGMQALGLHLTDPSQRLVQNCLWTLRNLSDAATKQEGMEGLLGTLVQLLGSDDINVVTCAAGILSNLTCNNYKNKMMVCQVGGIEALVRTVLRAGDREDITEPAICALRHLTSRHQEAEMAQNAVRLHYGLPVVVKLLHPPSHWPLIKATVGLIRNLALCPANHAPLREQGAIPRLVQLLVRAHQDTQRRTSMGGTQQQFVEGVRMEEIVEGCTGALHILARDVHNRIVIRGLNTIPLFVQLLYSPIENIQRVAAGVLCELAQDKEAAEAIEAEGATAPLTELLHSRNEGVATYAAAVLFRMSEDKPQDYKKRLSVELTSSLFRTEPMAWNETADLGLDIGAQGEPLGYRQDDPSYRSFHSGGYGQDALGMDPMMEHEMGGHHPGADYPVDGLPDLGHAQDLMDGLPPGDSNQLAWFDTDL
# [2] = target: full-length beta-Catenin (Uniprot ID P35222) (Homo sapiens (Human)) (UniProt P35222); experiment: FP competition; full-length beta-catenin, competitor 5FAM-TCF4(10-53)
# Target sequence in this assay (P35222 whole entry, one chain of several): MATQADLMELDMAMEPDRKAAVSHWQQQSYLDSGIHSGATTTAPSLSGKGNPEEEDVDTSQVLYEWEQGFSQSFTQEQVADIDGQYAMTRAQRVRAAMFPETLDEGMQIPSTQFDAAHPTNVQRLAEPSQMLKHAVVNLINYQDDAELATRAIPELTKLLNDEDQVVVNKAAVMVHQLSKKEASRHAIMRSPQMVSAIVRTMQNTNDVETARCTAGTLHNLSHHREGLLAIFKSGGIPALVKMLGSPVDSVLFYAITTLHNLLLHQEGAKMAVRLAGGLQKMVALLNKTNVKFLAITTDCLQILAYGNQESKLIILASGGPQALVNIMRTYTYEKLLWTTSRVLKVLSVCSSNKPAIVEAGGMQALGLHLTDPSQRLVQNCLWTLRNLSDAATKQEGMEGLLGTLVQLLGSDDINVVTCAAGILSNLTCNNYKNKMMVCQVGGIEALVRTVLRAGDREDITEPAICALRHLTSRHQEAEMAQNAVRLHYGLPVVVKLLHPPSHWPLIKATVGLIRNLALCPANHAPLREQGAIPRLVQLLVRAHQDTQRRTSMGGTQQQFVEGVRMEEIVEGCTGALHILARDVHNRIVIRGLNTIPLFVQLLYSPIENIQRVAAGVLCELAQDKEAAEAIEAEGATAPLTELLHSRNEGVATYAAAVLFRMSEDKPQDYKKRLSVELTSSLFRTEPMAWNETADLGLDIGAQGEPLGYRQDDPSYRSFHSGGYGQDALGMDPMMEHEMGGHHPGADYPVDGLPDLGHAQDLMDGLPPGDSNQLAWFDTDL
# [3] = target: Bcat-Halo (UniProt P35222); experiment: NanoBRET in HEK293 cells, Bcat-Halo / TCF4-Luc; absolute IC50
# Sequence of Bcat-Halo (P35222 whole entry): as the sequence (P35222 whole entry, one chain of several) above
# [4] = target: full-length beta-Catenin (Uniprot ID P35222) (Homo sapiens (Human)) (UniProt P35222); experiment: fluorescence polarization competition against 5FAM TCF4 10-53 probe
# Target sequence in this assay (P35222 whole entry, one chain of several): as above
# [5] = target: Bcat-Halo (UniProt P35222); experiment: NanoBRET in HEK293 cells, B-cat-Halo/TCF4-Luc, absolute IC50
# [6] = target: full-length beta-Catenin (Uniprot ID P35222) (Homo sapiens (Human)) (UniProt P35222); experiment: fluorescence polarization competition, full-length beta-catenin with 5FAM-TCF4(10-53) probe as competitor
# Target sequence in this assay (P35222 2-781 limits assumed): as the sequence (P35222 2-781 limits assumed) above
# [7] = target: full-length beta-Catenin (Uniprot ID P35222) (Homo sapiens (Human)) (UniProt P35222); experiment: fluorescence polarization competition; full-length beta-catenin, competitor 5FAM-TCF4(10-53) probe
# [8] = target: Bcat-Halo (UniProt P35222); experiment: NanoBRET Abs IC50 in HEK293 cells; Bcat-Halo, competitor TCF4-Luc
# [9] = target: Bcat-Halo (UniProt P35222); experiment: NanoBRET in HEK293 cells, Bcat-Halo/TCF4-Luc (competitor TCF4-Luc); percent inhibition at 10 uM peptide
# [10] = target: full-length beta-Catenin (Uniprot ID P35222) (Homo sapiens (Human)) (UniProt P35222); experiment: fluorescence polarization competition; peptide displaces 5FAM-TCF4(10-53) from full-length beta-catenin
# Target sequence in this assay (P35222 2-781 limits assumed): as above
# [11] = target: Bcat-Halo (UniProt P35222); experiment: NanoBRET in HEK293 cells, Bcat-Halo/TCF4-Luc (competitor TCF4-Luc); IC50
# [12] = target: full-length beta-Catenin (Uniprot ID P35222) (Homo sapiens (Human)) (UniProt P35222); experiment: fluorescence polarization competition, peptide titrated against full-length beta-catenin + 5FAM-TCF4(10-53)
# Target sequence in this assay (P35222 2-781 limits assumed): as above
# [13] = target: full-length beta-Catenin (Uniprot ID P35222) (Homo sapiens (Human)) (UniProt P35222); experiment: fluorescence polarization competition; 5FAM-TCF4 10-53 probe on full-length beta-catenin
# Target sequence in this assay (P35222 whole entry, one chain of several): as the sequence (P35222 whole entry, one chain of several) above
# [14] = target: full-length beta-Catenin (Uniprot ID P35222) (Homo sapiens (Human)) (UniProt P35222); experiment: fluorescence polarization competition; full-length beta-catenin + 5FAM-TCF4(10-53) probe; peptide titrated
# Target sequence in this assay (P35222 2-781 limits assumed): as the sequence (P35222 2-781 limits assumed) above
# [15] = target: Bcat-Halo (UniProt P35222); experiment: NanoBRET in HEK293 cells, Bcat-Halo / TCF4-Luc; peptide at 10 uM; competitor TCF4-Luc
# [16] = target: full-length beta-Catenin (Uniprot ID P35222) (Homo sapiens (Human)) (UniProt P35222); experiment: fluorescence polarization competition; full-length beta-catenin; competitor displaced: 5FAM-TCF4 10-53
# Target sequence in this assay (P35222 2-781 limits assumed): as above
# [17] = target: full-length beta-Catenin (Uniprot ID P35222) (Homo sapiens (Human)) (UniProt P35222); experiment: AlphaScreen competition vs biotin-TCF4(10-53) on full-length beta-catenin
# Target sequence in this assay (P35222 whole entry, one chain of several): as the sequence (P35222 whole entry, one chain of several) above
# [18] = target: full-length beta-Catenin (Uniprot ID P35222) (Homo sapiens (Human)) (UniProt P35222); experiment: FP competition vs 5FAM-TCF4(10-53) probe on full-length beta-catenin
# Target sequence in this assay (P35222 whole entry, one chain of several): as above
# [19] = target: full-length beta-Catenin (Uniprot ID P35222) (Homo sapiens (Human)) (UniProt P35222); experiment: fluorescence polarization competition; full-length beta-catenin, 5FAM-TCF4(10-53) probe
# [20] = target: Bcat-Halo (UniProt P35222); experiment: NanoBRET Abs IC50; HEK293 cells transfected with B-cat-Halo and TCF4-Luc
# [21] = target: full-length beta-Catenin (Uniprot ID P35222) (Homo sapiens (Human)) (UniProt P35222); experiment: fluorescence polarization competition vs 5FAM-TCF4(10-53) on full-length beta-catenin
# Target sequence in this assay (P35222 whole entry, one chain of several): as above
# [22] = target: full-length beta-Catenin (Uniprot ID P35222) (Homo sapiens (Human)) (UniProt P35222); experiment: fluorescence polarization competition; peptide titrated against full-length beta-catenin + 5FAM-TCF4(10-53) probe
binder,measurement,setting,value
"Ac-[αAllylPro]D[tBuAla][B5(4)]DDAAF[hSer][S8]F[Bta]Q-NH2 (staple 1-4, 4-11) [I-1388]",IC50,[1],0.018 µM
same,EC50,[2],0.018 µM
same,IC50,[3],11.3 µM
B1,IC50,[4],0.234 µM
same,IC50,[5],> 20 µM
"Ac-[αAllylPro]D[tBuAla][B5(4)]DEAAFN[S8]F[Bta]Q-NH2 (staple 1-4, 4-11) [I-677]",EC50,[6],0.022 µM
same,IC50,[7],0.022 µM
same,IC50,[8],6.7 µM
"Ac-[αAllylPro]D[tBuAla][B5(13)]DDAAFN[PyrS2]F[Bta]H-NH2 (staple 1-4, 4-11) [I-777]",NanoBRET % inh @ 10 uM,[9],24.5%
same,IC50,[10],0.005 µM
same,EC50,[7],0.005 µM
same,IC50,[11],14.4 µM
"Ac-[αAllylPro]D[tBuAla][B5]DDAAFN[PyrS2″][3Thi][Bta][dT]-NH2 (staple 1-4, 4-11) [I-817]",EC50,[12],0.01 µM
same,IC50,[13],0.01 µM
"Ac-[αAllylPro]D[tBuAla][B5(8)]DDAAFN[PyrS2″][3Thi][Bta]H-NH2 (staple 1-4, 4-11) [I-694]",EC50,[14],0.005 µM
same,NanoBRET % inh @ 10 uM,[15],32.7%
same,IC50,[16],0.005 µM
"Ac-[αAllylPro]DL[B5(8)]DDAAFN[PyrS2″][3Thi][Bta]H-NH2 (staple 1-4, 4-11) [I-696]",EC50,[14],0.005 µM
same,NanoBRET % inh @ 10 uM,[15],17%
same,IC50,[16],0.005 µM
"Ac-[αAllylPro]DA[B5(4)]D[TfeGA]AAFV[S8]F[Bta]Q-NH2 (staple 1-4, 4-11) [I-293]",EC50,[17],0.041 µM
same,EC50,[18],0.14 µM
"Ac-[αAllylPro]D[tBuAla][B5]NTAAFN[PyrS2][3Thi][Bta]A-NH2 (staple 1-4, 4-11; also: earlier eluting HPLC isomer) [I-2142]",IC50,[19],0.271 µM
same,IC50,[20],> 20 µM
"Ac-[αAllylPro]DA[B5(4)]DDAAFV[S8][Phe(4-COOH)][Bta]Q-NH2 (staple 1-4, 4-11; also: later-eluting staple isomer) [I-340]",IC50,[21],5 µM
same,EC50,[22],5 µM
